Measured values: paper PMC3945839 (Protein Science : A Publication of the Protein Society, 2014)
Where no end group is shown, it is not given here. The star is where a group is joined. BMPH = NNC(=O)CCN1C(=O)CC(*)C1=O

T1: Methionine aminopeptidase from E. coli (E. coli, UniProt P0AE18 1-264)
T1 sequence: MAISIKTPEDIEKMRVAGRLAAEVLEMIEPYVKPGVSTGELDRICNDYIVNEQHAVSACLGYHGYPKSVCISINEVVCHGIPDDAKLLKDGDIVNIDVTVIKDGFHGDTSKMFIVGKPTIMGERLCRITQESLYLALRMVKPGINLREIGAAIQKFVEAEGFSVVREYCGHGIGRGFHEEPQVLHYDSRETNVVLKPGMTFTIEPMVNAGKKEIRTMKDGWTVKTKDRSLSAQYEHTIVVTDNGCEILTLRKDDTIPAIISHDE


Assays:
Experiment in all cases: BLI
[1] = target: N-terminal leucine peptide (X-GMMSC, X = leucine)
[2] = target: N-terminal methionine peptide (X-GMMSC, X = methionine)
[3] = target: T1, Methionine aminopeptidase from E. coli

| Molecule | Kd [1] [µM] | koff [1] [s⁻¹] | kon [1] [M⁻¹ s⁻¹] | Kd [2] [µM] | koff [2] [s⁻¹] | kon [2] [M⁻¹ s⁻¹] | Kd [3] [µM] | koff [3] [s⁻¹] | kon [3] [M⁻¹ s⁻¹] |
| --- | --- | --- | --- | --- | --- | --- | --- | --- | --- |
| eLAP, designed leucine aminopeptidase derived from E. coli methionine aminopeptidase (from UniProt P0AE18 4-264) (enzyme) | 0.826 | 0.00142 | 1720 | 19.1 | 0.00408 | 214 |  |  |  |
| MGMMSC(BMPH) [N-terminal methionine peptide (X-GMMSC, X = methionine)] |  |  |  |  |  |  | 2.65 | 0.00489 | 1850 |
| LGMMSC(BMPH) [N-terminal leucine peptide (X-GMMSC, X = leucine)] |  |  |  |  |  |  | 54.2 | 0.0147 | 271 |
